Data reported in patent publication US20230265179A1 (TWIST BIOSCIENCE, published 2023).
Residue numbers refer to the chain shown, from its start.

T1: IL1RL1 over-expressed on Expi293 cells (UniProt Q01638 19-556, limits assumed)
T1 construct: whole, on cells; Target of the flow cytometry MFI ratio (over-expressing cells over parent cells); also called cytokine over-expressing Expi293 cells
T1 sequence (looked up): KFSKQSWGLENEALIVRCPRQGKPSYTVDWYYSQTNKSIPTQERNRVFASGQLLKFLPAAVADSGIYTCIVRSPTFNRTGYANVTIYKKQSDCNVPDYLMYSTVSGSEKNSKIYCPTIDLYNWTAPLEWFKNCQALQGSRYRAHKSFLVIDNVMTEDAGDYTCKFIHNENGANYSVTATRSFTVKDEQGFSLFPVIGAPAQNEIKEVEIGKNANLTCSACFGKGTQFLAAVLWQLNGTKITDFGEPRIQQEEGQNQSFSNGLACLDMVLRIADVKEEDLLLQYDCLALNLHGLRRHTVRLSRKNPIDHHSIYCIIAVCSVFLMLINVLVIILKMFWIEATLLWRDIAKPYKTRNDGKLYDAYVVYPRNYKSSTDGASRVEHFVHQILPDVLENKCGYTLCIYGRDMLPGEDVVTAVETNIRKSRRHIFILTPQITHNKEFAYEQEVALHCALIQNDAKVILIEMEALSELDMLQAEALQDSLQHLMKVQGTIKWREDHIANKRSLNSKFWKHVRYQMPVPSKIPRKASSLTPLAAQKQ

T2: CD40L over-expressed on Expi293 cells (UniProt P29965 1-261, limits assumed)
T2 construct: whole, on cells; also called cytokine over-expressing Expi293 cells
T2 sequence (looked up): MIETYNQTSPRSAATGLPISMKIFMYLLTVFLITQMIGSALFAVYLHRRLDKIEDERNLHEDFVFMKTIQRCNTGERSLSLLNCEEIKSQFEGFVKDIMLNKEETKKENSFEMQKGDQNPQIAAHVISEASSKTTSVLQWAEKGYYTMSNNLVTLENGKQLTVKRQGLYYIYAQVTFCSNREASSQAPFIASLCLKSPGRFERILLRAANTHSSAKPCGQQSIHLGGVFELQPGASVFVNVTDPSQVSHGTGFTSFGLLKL

T3: CD40L (UniProt P29965 113-261, limits assumed)
T3 construct: SPR analyte
T3 sequence (looked up): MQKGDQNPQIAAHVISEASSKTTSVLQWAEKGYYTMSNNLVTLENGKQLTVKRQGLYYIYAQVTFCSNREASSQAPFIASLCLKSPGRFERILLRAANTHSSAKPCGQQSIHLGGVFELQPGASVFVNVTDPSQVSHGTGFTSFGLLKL

B1: IL1RL1-34 (Fc fusion, not shown: a dimerising Fc or GST)
VHH: EVQLVESGGGLVQPGGSLRLSCAASGSTFSNAVMGWFRQAPGKEREFVAVIIDSRTTKYADSVKGRFTISADNSKNTAYLQMNSLKPEDTAVYYCAAVGGATTVTASEWDWGQGTLVTVSS
notes: VHH-Fc on IgG2 Fc
B2: IL1RL1-38 (Fc fusion, not shown: a dimerising Fc or GST)
VHH: B1 VHH with S27F, A32H, V33I, F47L
notes: VHH-Fc on IgG2 Fc
B3: IL1RL1-55 (Fc fusion, not shown: a dimerising Fc or GST)
VHH: EVQLVESGGGLVQPGGSLRLSCAASGEIASIIAMGWFRQAPGKERELVAVIIGGGSTNYADSVKGRFTISADNSKNTAYLQMNSLKPEDTAVYYCAAVGGATTVTASEWDWGQGTLVTVSS
notes: VHH-Fc on IgG2 Fc
B4: IL1RL1-80 (Fc fusion, not shown: a dimerising Fc or GST)
VHH: B1 VHH with S27R, N31P, A32I, V33A, F47M
notes: VHH-Fc on IgG2 Fc
B5: IL1RL1-85 (Fc fusion, not shown: a dimerising Fc or GST)
VHH: EVQLVESGGGLVQPGGSLRLSCAASGRTFSTAGMGWFRQAPGKEREWVASIITSGSTITPYADSVKGRFTISADNSKNTAYLQMNSLKPEDTAVYYCAVVDLLRGKLWGQGTLVTVSS
notes: VHH-Fc on IgG2 Fc
B6: IL1RL1-28 (Fc fusion, not shown: a dimerising Fc or GST)
VHH: EVQLVESGGGLVQPGGSLRLSCAASGRTISRYTMGWFRQAPGKEREFVAGIWSGGYTHYADSVKGRFTISADNSKNTAYLQMNSLKPEDTAVYYCAAVSSNTEIFDWGQGTLVTVSS
notes: VHH-Fc on IgG2 Fc
B7: IL1RL1-35 (Fc fusion, not shown: a dimerising Fc or GST)
VHH: B6 VHH with R27L, R31S, Y32L
notes: VHH-Fc on IgG2 Fc
B8: IL1RL1-29 (Fc fusion, not shown: a dimerising Fc or GST)
VHH: EVQLVESGGGLVQPGGSLRLSCAASGGFSVYAMGWFRQAPGKEREWVSSTSTGGGGTYYADSVKGRFTISADNSKNTAYLQMNSLKPEDTAVYYCAANVGVTGSYEWGQGTLVTVSS
notes: VHH-Fc on IgG2 Fc
B9: IL1RL1-30 (Fc fusion, not shown: a dimerising Fc or GST)
VHH: EVQLVESGGGLVQPGGSLRLSCAASGDISSIVAMGWFRQAPGKEREWVASISTSGSTITPYADSVKGRFTISADNSKNTAYLQMNSLKPEDTAVYYCAAGAVRYGVSTSPMNYNWGQGTLVTVSS
notes: VHH-Fc on IgG2 Fc
B10: IL1RL1-31 (Fc fusion, not shown: a dimerising Fc or GST)
VHH: EVQLVESGGGLVQPGGSLRLSCAASGFTFRNFGMGWFRQAPGKEREFVALINVGGVAKYADSVKGRFTISADNSKNTAYLQMNSLKPEDTAVYYCTTDARHWGQGTLVTVSS
notes: VHH-Fc on IgG2 Fc
B11: IL1RL1-32 (Fc fusion, not shown: a dimerising Fc or GST)
VHH: EVQLVESGGGLVQPGGSLRLSCAASGFTLGDYVMGWFRQAPGKEREFVAVIYTSDGSTYYADSVKGRFTISADNSKNTAYLQMNSLKPEDTAVYYCVVSFSTRGPYWGQGTLVTVSS
notes: VHH-Fc on IgG2 Fc
B12: IL1RL1-33 (Fc fusion, not shown: a dimerising Fc or GST)
VHH: EVQLVESGGGLVQPGGSLRLSCAASGGTFSTHWMGWFRQAPGKEREEVAAISWIIGSTYYADSVKGRFTISADNSKNTAYLQMNSLKPEDTAVYYCATSGSGSPNWGQGTLVTVSS
B13: IL1RL1-36 (Fc fusion, not shown: a dimerising Fc or GST)
VHH: EVQLVESGGGLVQPGGSLRLSCAASGSIYSLVAMGWFRQAPGKEREWMGVIAYDGSTYYADSVKGRFTISADNSKNTAYLQMNSLKPEDTAVYYCAAVGGATTVTASEWDWGQGTLVTVSS
notes: VHH-Fc on IgG2 Fc
B14: IL1RL1-76 (Fc fusion, not shown: a dimerising Fc or GST)
VHH: EVQLVESGGGLVQPGGSLRLSCAASGSIFTIYAMGWFRQAPGKEREWVASISTSGSTITPYADSVKGRFTISADNSKNTAYLQMNSLKPEDTAVYYCATTEYSGYDAVNYWGQGTLVTVSS
notes: VHH-Fc on IgG2 Fc
B15: IL1RL1-79 (Fc fusion, not shown: a dimerising Fc or GST)
VHH: EVQLVESGGGLVQPGGSLRLSCAASGRTFSMGWFRQAPGKEREAVASISWSGGSAFYADSVKGRFTISADNSKNTAYLQMNSLKPEDTAVYYCAAIGGGAVWGQGTLVTVSS
notes: VHH-Fc on IgG2 Fc
B16: IL1RL1-189 (antibody, V domains shown)
VH: EVQLLESGGGLVQPGGSLRLSCAASGFTFSSYFMSWVRQAPGKGLEWVSAISREGRATYYADSVKGRFTISRDNSKNTLYLQMNSLRAEDTAVYYCARIRVGPSGGAFDYWGQGTLVTVSS
VL: DIQMTQSPSSLSASVGDRVTITCKASDHIGKFLTWYQQKPGKAPKLLIYGRNKRPSGVPSRFSGSGSGTDFTLTISSLQPEDFATYYCQQSYSTPTFGQGTKVEIK
notes: IgG2
B17: IL1RL1-192 (antibody, V domains shown)
VH: EVQLLESGGGLVQPGGSLRLSCAASGFTFGNYAMAWVRQAPGKGLEWVSGITRSGSTNYRDSVKGRFTISRDNSKNTLYLQMNSLRAEDTAVYYCARDRYFRQQNAFDYWGQGTLVTVSS
VL: DIQMTQSPSSLSASVGDRVTITCQASQSISSYLAWYQQKPGKAPKLLIYGRNKRPSGVPSRFSGSGSGTDFTLTISSLQPEDFATYYCAQTGTHPTTFGQGTKVEIK
notes: IgG2
B18: IL1RL1-193 (antibody, V domains shown)
VH: EVQLLESGGGLVQPGGSLRLSCAASGFTFAKYKMWWVRQAPGKGLEWVSGITRSGSTNYRDSVKGRFTISRDNSKNTLYLQMNSLRAEDTAVYYCASLSRGYWGQGTLVTVSS
VL: DIQMTQSPSSLSASVGDRVTITCKASDHIGKFLTWYQQKPGKAPKLLIYHTSRLQSGVPSRFSGSGSGTDFTLTISSLQPEDFATYYCQQGFSNPWTFGQGTKVEIK
notes: IgG2
B19: IL1RL1-200 (antibody, V domains shown)
VH: EVQLLESGGGLVQPGGSLRLSCAASGFTFKSYGMHWVRQAPGKGLEWVSLIPHTGNPTYYADSVKGRFTISRDNSKNTLYLQMNSLRAEDTAVYYCARGGPRGNKYYFDYWGQGTLVTVSS
VL: DIQMTQSPSSLSASVGDRVTITCSGDKLGHTYTSWYQQKPGKAPKLLIYRKSNRPSGVPSRFSGSGSGTDFTLTISSLQPEDFATYYCYSRDRSGNHLGMFGQGTKVEIK
notes: IgG2
B20: CD40L-41 (VHH)
VHH: EVQLVESGGGLVQPGGSLRLSCAASGSTFSKHHAMGWFRQAPGKERELVASISSDNYTVYADSVKGRFTISADNSKNTAYLQMNSLKPEDTAVYYCAREAANYREPPLWGQGTLVTVSS
B21: CD40L-46 (VHH)
VHH: EVQLVESGGGLVQPGGSLRLSCAASGFTFSRYEMGWFRQAPGKEREWVASLYLNGDYPYYADSVKGRFTISADNSKNTAYLQMNSLKPEDTAVYYCAIPHGIAGRITWGQGTLVTVSS
B22: CD40L-47 (VHH)
VHH: EVQLVESGGGLVQPGGSLRLSCAASGRTLVNYDMGWFRQAPGKEREFVAAISMSGEDTIYADSVKGRFTISADNSKNTAYLQMNSLKPEDTAVYYCTTGGGTRDYWGQGTLVTVSS
B23: CD40L-48 (VHH)
VHH: EVQLVESGGGLVQPGGSLRLSCAASGFTFSRYEMGWFRQAPGKEREFVAAVTEGGTTSYADSVKGRFTISADNSKNTAYLQMNSLKPEDTAVYYCAAESLGRWWGQGTLVTVSS
B24: CD40L-51 (VHH)
VHH: EVQLVESGGGLVQPGGSLRLSCAASGYFASWYYMGWFRQAPGKEREEVATFYTGDGRTYYADSVKGRFTISADNSKNTAYLQMNSLKPEDTAVYYCAAWLNGGNRWGQGTLVTVSS
B25: CD40L-55 (VHH)
VHH: EVQLVESGGGLVQPGGSLRLSCAASGLPFSTLHMGWFRQAPGKEREFVAAISRSGNLKAYADSVKGRFTISADNSKNTAYLQMNSLKPEDTAVYYCAADDYLGGDNWYLGPYDWGQGTLVTVSS

The binders below were run against T1, IL1RL1 over-expressed on Expi293 cells (assay: flow cytometry, 100 nM antibody, over-expressing Expi293 / parent cells).
Description: (§1) All incubations and washes were in buffer containing PBS+1% BSA. MFI Ratio is defined by the mean fluorescence intensity (MFI) of the cytokine over-expressing Expi293 cell over the Expi293 parent cell. […] EC50 was calculated in GraphPad Prism.

Binder	100 nM FACS (MFI Ratio)
B1	476 MFI ratio
B2	1.37 MFI ratio
B3	1.6 MFI ratio
B4	1.49 MFI ratio
B5	4.47 MFI ratio
B6	473 MFI ratio
B7	514 MFI ratio
B8	431 MFI ratio
B9	515 MFI ratio
B10	311 MFI ratio
B11	432 MFI ratio
B12	504 MFI ratio
B13	87.7 MFI ratio
B14	385 MFI ratio
B15	1 MFI ratio
B16	7.46 MFI ratio
B17	0.55 MFI ratio
B18	1.62 MFI ratio
B19	1 MFI ratio

The binders below were run against T2, CD40L over-expressed on Expi293 cells (assay: flow cytometry, 100 nM antibody, CD40L-Expi293 vs parent Expi293 cells;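 further: ratio is the mean fluorescence intensity on CD40L-overexpressing Expi293 cells divided by the mean fluorescence intensity on parental Expi293 cells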).
Description: as §1

Binder	100 nM FACS (MFI Ratio)
B20	15.5 ratio
B21	45.7 ratio
B22	41.8 ratio
B23	68.4 ratio
B24	76.6 ratio
B25	3.2 ratio

What follows are binders tested against T3, CD40L (assay: SPR (Carterra LSA), antibody amine-coupled, 1:1 model).
Description: SPR experiments were performed on a Carterra LSA SPR biosensor equipped with a HC30M chip at 25° C. in HBS-TE. Antibodies were diluted to 10 μg/mL and amine-coupled to the sensor chip by EDC/NHS activation, followed by ethanolamine HCl quenching. Increasing concentrations of analyte were flowed over the sensor chip in HBS-TE with 0.5 mg/mL BSA with 5-minute association and 15-minute dissociation. Following each injection cycle the surface was regenerated with 2× 30-second injections of IgG elution buffer (Thermo). Data were analyzed in Carterra's Kinetics Tool software with 1:1 binding model.

Binder	Kd	koff	kon
B20	8.47 nM	0.000685 s⁻¹	80800 M⁻¹ s⁻¹
B21	11.5 nM	0.000576 s⁻¹	50200 M⁻¹ s⁻¹
B22	2.38 nM	0.000536 s⁻¹	225000 M⁻¹ s⁻¹
B23	8.48 nM	0.000998 s⁻¹	118000 M⁻¹ s⁻¹
B24	≤ 0.174 nM	≤ 1e-05 s⁻¹	57600 M⁻¹ s⁻¹
B25	10 nM	0.0001 s⁻¹	10000 M⁻¹ s⁻¹
